Experimental findings from the nanobody polyreactivity screen of Harvey et al. (2022) are described below.

This data set can be described thus: yeast display, Sf9 membrane polyspecificity reagent, FACS + sequencing; frameworks hold sequencing errors. In short, it runs like this:
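A synthetic nanobody library was expressed on Saccharomyces cerevisiae BJ5465 by galactose induction for 36–48 hours. The library was stained for 1 hour at 4 °C with 10% biotinylated, detergent-solubilized Sf9 membrane reagent and enriched with streptavidin microbeads before FACS. Low and high (top ~1%) gates were set on anti-HA fluorescence for expression and streptavidin fluorescence for reagent binding, and each polyreactivity label reflects the gate of origin.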
With “QVQLVESGGGLVQAGGSLRLSCAASGRIFRYYVMGWYRQAPGKERELVAAITSGTSTNYADSVKGRFTISRDNAKNTVYLQMNSLKPEDTAVYYCAFRSPRGGRTRFNSNYWGQGTQVTVSS”, the “polyreactivity (PSR sort gate)” value is listed as “high polyreactivity”. Then “QVQLEESGGGLVQAGGSLRLSCAASGRTFGSNAMGWYRQAPGKERELVAAIRERGGSTYADSVKGRFTISRDNAKNTVYLQMNSLKPEDTAVYYCAADRSVIWSKNYDYWGQGTQVTVSS”, with “low polyreactivity”.

Take “QVQLVESGGGLVQAGGSLRLSCAACGRTFRRNAMGWYREAPGKERELVAAISTSGGRTYYADSVKGRFTISRDNAKNTVYLQMNSLKPEDTAVYYCAADIPQTDGYWGQGTQVTVSS”: the “polyreactivity (PSR sort gate)” value is on record as “low polyreactivity”. With “QVQLVESWGGLVQAGGSLRLSCAASGSIFDNYAMGWYRQAPGKERELVAAISWSGGRTYYADSVKGRFTISRDNAKNTVYLQMNSLKPEDTAVYYCAAYVYTSFLYYYWGQGTQVTVSS”, the “polyreactivity (PSR sort gate)” value is listed as “high polyreactivity”. Regarding “QVQLVQSGGGLVQAGGSLRLSCAPTGVIFRHNARGWYRQSPGKERELVAAISRSGGNTYYADSVKGRFTISRDNAKQTDYLQRNSLKPEDTAVYYSNKIEYDSWADHVYWGQGTQVTVSS”, the “polyreactivity (PSR sort gate)” value is listed as “low polyreactivity”. Consider “QVQLVESGGGLVQAGGSLRLSCAASGFTFHNNVMGWYRQAPGKERELVATISKSGGSTYYADSVKGRFTISRDNAKNTVYLQMNSLKPEDTAVYYCAAETPTHDEWGQGTQVTVSS”, for which the “polyreactivity (PSR sort gate)” value is on record as “high polyreactivity”. As for “QVQLVESGGGLVQAGGSLRLSCAASGRIFHTYGRRWSRQAPGKEREFVAAITWTGGSTYYADSVKGRFTISRDNAKNTFYLQMNSLKPEDTAVYYCAADYPRDIIGSMDYWGQGTQVTVSW”, the “polyreactivity (PSR sort gate)” value is “low polyreactivity”.

Regarding “QGQLVESGGGLVQAGGSIRLSCAASGYIFRRYAMGWYRQAPGKEREFVATISRSGGSTYYADSVKGRFTISRDNAKNTVYLQMNSLKPEDTAVYYCNAGYGYGYPKYDYWGQCTQVTVSS”, the “polyreactivity (PSR sort gate)” value is on record as “high polyreactivity”. Then “QVQLVESGGGLVQAGGSHRLRCAASGRIFWSNTMGWYRQAPGKERELVAAISGRGGSTYYADSVKGRFTISRDNAKNTVYLQMNSLKPEDTAVYYCAARYPAYYEAYDYWGQGTQVTVSS”, with “low polyreactivity”; and “QVQLVESGGGLVQAGGSLRLSCAASASTFPVNAMGWYRQAPGKERELVAAIRSSTGRTYYADSVKGRFTISRDNAKNTVYLQMNSLKPEDTAVYYCAAYYLGQYEYDYWGQGTQVTVSS”, with “low polyreactivity”. Then “QVHLVESGGGLDQAGGSLRLSCAASGRIFPLYAMGWYRQAPGKERELVAAISSGGTTYYADSVKGRFTISRDNAKNTVYLQMHSLKPEDTAVYYCARRPAQRWGRFDYWGQGTQVTVSS”, with “low polyreactivity”. The same measure for “QVQLVESGGGLVQAGGSLRLSFAAYGRTIRWNAMGWYRQEPGKERELVAAITSRGGSTYYADSVKGRFTISRDNAKNTVYLQMNSLKPEDTAVYYCAKQPKPPPVTGYDYWGQGTQVTVSS”: “high polyreactivity”; for “QVQLVESGGGLVQAGGSLRLSCAASGFTIGSNAMGWYRPAPGKEWELVAAISYTCSTYYAESVKGRFTISRDNAKNTVYLQKNSLKPEDTAVYYGNAESDTPSYDDWGQGTQVTVSS”: “low polyreactivity”. Consider “QVQLVESGGGLVQAGGSLRLSCAASGSTFWFYAMGWYRQAPGKERELVAVISNSGSTYYADSVKGRFTISRDNAKNTVYLQMNSLKPEDTAVYYSNKDGGGDSYWYDYWGQGTQVTVSS”, for which the “polyreactivity (PSR sort gate)” value is recorded as “low polyreactivity”. Then “QVQLVESGGGLVQAGGSLRLSCAPSGRIFRTNTMGWYRQAPGKERELVAAITRGGSTYYADSVKGRFTISRDNAKNTDYLQMKSLKPEDTAVYYCAASRYYNTVHNGGDYWGQGTQVTVSS”, with “high polyreactivity”; and “QVQLVESGGGLVQAGGSLRLSCAASGFTFYYYAMGWYRQAPGTERELVASITSTDSTTYADSVKGRFTISRDNAKNTVYLQMNSLKPEDTAVYYFNRLYYHWYGGLDYWGHGTQVTVSS”, with “high polyreactivity”; and “QDQLVESGGGLVQAGGSLRLSCAASGINFKYYAMGWYRQAPGKERELVAAISRSGSSTYYADSVKGRFTISRDNAKNTVYLQMNSLIPEDTSVYYCADQPYDSNYGNSGYWGQGTQVTVSS”, with “high polyreactivity”. On to “QVQLVESGGGLVQAGGSLRLICAASGFTFSQYAMGWYREAPGKERELVAAISWNGGSTYYADSVKGRFTISRDNAKNTVYLQMNSLKPEDTAVYYWNRRWPFVRFYYWGQGTQVTVSS”, for which the “polyreactivity (PSR sort gate)” value is “high polyreactivity”. The same measure for “QVQHVESGGGLVQAGGSLRLSCAASGFTFYIYVMGWYRQAPGKERELVAAITWSGGRTYYADSVKGRFTISRDNAKNTVYLQMNSLKPEDTAVYYCAASYPGLSYHKYEYWGQGTQVTVSS”: “high polyreactivity”; for “QVQLVESGGGLVQAGGSLRLSCAASGFIFGRYAMGWYRQAPGKERELVAAITRSGGTTYYADSVKGRFTISRDNAKKTVYLQMYSLKPEDTAVYYCAAPRIYYTDDYWGQGTQVTVSS”: “high polyreactivity”. Then “QVQLVESGGGLVQAGGSLRLSCAASGRTFLSYTMGWYRQATGKERELVAAITTSGGSTNYADSVKGRFSISRDTAKNTVYLQMNRLKPEDTAVYYCADEWSVYFNDPRSDYWGQGTQVTVSS”, with “high polyreactivity”; and “QVQLVESGGGLVQAGGSLRISCAASGFTFKRYAMGWYRQAPGKERELVAAITWRGGSTYYADSVKGRFTISRDNAKNTVYLQMNSLKPEDTAVYYCAAYSYPYWQKRPYDYWGQGTQVTVSS”, with “high polyreactivity”. The same measure for “QLQLEESGGGLVQAGGSLRLSSAASGRTFYYYAIGWYRQAPGKERELVAAISRGGSTYYADSVKGRFTISRDNAKITVYLQMHSLKPEDTAVYYCAAVLRPDRYDYWGQGTQVTVSS”: “high polyreactivity”; for “QVQLVESGGGLVQAGGSLRLSCAASGRIFRKYAMGWYRQAPGKERELVAAINWSGGSTYYADSVKGRFTISRDNAKNTVYLQMNSLKPEDTAVYYCAAYVRRVGYYYWGQGTQVTVSS”: “high polyreactivity”; for “QVQLVESGGGLVQAGASLRLSCAASGRIFRNYAMGWYRQAPGKERELVAAISSSGGSTYYADSVKGRFTISRDIAKNTVYFQMNSLKPEDTAVYYCAAVARVRGRGDYWGQGSQVTVSS”: “high polyreactivity”. “QVQLVESGGGLVQAGGSLRLSCAASGSIFTHNAMGWYRQAPGKERVLVAAISSGGSTNYADSVKGRFTISRDNAKNTVYLQMNSLKPEDTAVYYCAKSIDGWYWRRRRYDYWGQGTQVTVSS”: the “polyreactivity (PSR sort gate)” value is “low polyreactivity”. Then “QVQLVESGGGLVQAGGSLRLSCAASGSIFDPYAMGWYRQAPGKERELVAAINGGSGSTFYADSVKGRFTISRDNAKNTVNLQMNSLKPEDTAVYYCAAKIWRYSPSYYPEPRGDYWGQGTQVTVSS”, with “low polyreactivity”; and “QVQLVESGGGLVQAGGSLRLSCDASGLIFRPYARGWFRQAPGKERELVAAITSGGSTDYADSVKGRFTISRDNAKNTVYLLMNSLKPADTAVYYCNADIYPHDGYPWQGDYDYWGQGTQVTVSS”, with “low polyreactivity”. Then “QVQLVESGGGLVQAGGSLRLSCAASGRIFPTYTMGWYRQAPGKERELLAAISGRGGNTYYADSVKGRFTISRDTAKNTVYLQMNSLKPEDTAVYYCAARYPVRNGYWGLGTQVTVSS”, with “high polyreactivity”. The same measure for “QVQLVESGGGLVQAGGSLRLSCAASGSIFRLNVMGWYRQAPGKERELVAVITGSGTRTNYADSVKGRFTISRDNAKNTVYLQMNSLKPEDTAVYYCNRVTTPTVTYGYGKMDYWGHGTQVTVSS”: “high polyreactivity”; for “QVQLLESGVGLVQAGGSLRLSCAASGNTFYHYAMGLYRQAPGKERELVAAISLSGGSTYYADSVKGRFTISRDNAKNTVYLQMNSLKPEDTAVYYCAADIFYYSSSYGYWGQGTQVTVST”: “low polyreactivity”.

For the sequence “QVQLVESGGGLVQAGGSLRLSCAASGRIFPVYAMGWYRQAPGKERELVASISSSGARTYYADSVKGRFTISRDNAKNTVYLQMNSLKPEDTAVYYCNAVRYFSSHSFISDYWGQGTQVTVSS”, the “polyreactivity (PSR sort gate)” value is “low polyreactivity”. Consider “QVQLVESGGGLVQAGGSLRLSCAASGSTFWYNAMGWYRQAPGKERELVAAITTRGDSTYYADSVKGRFTISRDNAKNTVYLQMNSLKPEDTAVYYCAADWAWYSYDWYYWYDYWGQGTQVTVSS”, for which the “polyreactivity (PSR sort gate)” value is “high polyreactivity”. In the case of “QVQLVESGGGLVQAGGSLRLSCAASGSIFSKNAMGWYRQAPGKERELVAAISSSGGITYYADSVKVRFTISRDNANNTVYLQMNSLKPEDTAFYYCATLGGAIRQAFEYWGQGTQVNVSS”, the “polyreactivity (PSR sort gate)” value is “low polyreactivity”. Then “QVQLVESGGGLVQAGGSLRLSCAASGIIFYYNAMGWYRQAPGKERELVAAISWSGGSTYYADSVKGRFTISRDYAKNSVYLQMNSLKTEDTAVYYCAADYYWRVHYGYWGQGTQVTVSS”, with “high polyreactivity”. As to “QVQLVESGGGLVQAGGSLRISCAASGYIFKYAMGWYRQAPGKERELVAAISRRGGSTYYADSVKGRFTISRDNAKNTVYLQMNSLKPEDTEVYYCAARLPGYYGIGDYWGQGTQVTVSS”, the “polyreactivity (PSR sort gate)” value was “high polyreactivity”. Then “QVQLVESGGGVVQAGGSLRLSCAATGFTFAANTKGWYRQPPGKERELVADISGRGDRTSYADSVKGRFTISRDNAKYTVYLQINSLKPEDTAVYYCAVDIFYYSNVHYYYWGQGTQVTVSS”, with “low polyreactivity”. Turning to “QVQLVESGGGLVQAGGSLRLSCAASGRIFGTNAMGWYRQAPGKERELVAAINGSDSSTYYADSVKGRFTISRDNAKNTVYLQMNSLKPEDTAVYYCAADWDFFQQGANGAPYDYWGQGTQVTVSS”, the “polyreactivity (PSR sort gate)” value was “low polyreactivity”. Turning to “QVQLVESGGGLVQAGGSLRLSCAASGRIFDYNVMGWYRQPPGKESELVAAISWDGDSTYYADSVKGRFTISRDNAKNSVYLQMKSLKPEDTAVYYCNRVEGGTSWADEMNYWGQGTQVTVSS”, the “polyreactivity (PSR sort gate)” value is recorded as “low polyreactivity”. Then “QVQLVESGGGLVQAGGSLRLSCAASGLTFGAYAMGWYRQAPGKERELVSAISWSGNTYYADSVKGRFTISRDNAKNTVYLQMNSLKPEDTAGYYCAVRSYGHGFDYWGQGTQVTVSS”, with “high polyreactivity”; and “QVQLVESGGGLVQAGGSLRLSCAASGLTITQYVMGWYRQAPGKERDLDAAISWGGTSTYYADSVKGRFTISRDHAKNTVYLQMNSLKPEDTAVYYCNARSVYLSFWGFDYWGQGTQVTVSS”, with “low polyreactivity”.
